Data on four compounds can be found in patent US20080213187A1, “NOVEL CASCADE POLYMER COMPLEXES, PROCESSES FOR THEIR PREPARATION AND PHARMACEUTICAL COMPOSITIONS COMPRISING THEM” (priority 2007, published 2008).

For data set [1] the following is noted: rats; cited from earlier work.
Data set [2] in a line: Plasma kinetics after intravenous administration to rats. Type of data set: in vivo. Particulars: for Plasma levels (as % of the dose): i.v. 50 μmol total Gd/kg, ICP-AES. As for the experimental part:
Plasma Kinetics of the Compounds 2e and 4e After Intravenous Administration to Rats
The title substances from Examples 2e and 4e, and for comparison the title substance from Example 1 of EP 0 836 485, were administered intravenously to rats in a dose of 50 μmol of total gadolinium/kg of body weight. Blood samples were then taken through a catheter in the common carotid artery at various times (1, 3, 5, 10, 15, 30, 60, 90, 120, 240, 360 min, and 24 h p.i.), and the metal content was determined by atomic emission spectroscopy (ICP-AES) and converted into plasma levels using a conversion factor (0.625). The kinetic data were calculated (software: WinNonlin) from the plasma concentrations (Tab. 1, 2).

The conditions of data set [3]: rats, cited from earlier work.
Where [4] appears, read: intravenous, 50 μmol of total gadolinium/kg, calculated with WinNonlin from plasma concentrations.

As to polylysine-GdDTPA, the excretion behaviour entry in data set [1] is “excreted unchanged by glomerular filtration via the kidney”.
Take “Octa-Gd complex amide from the Gd complex of 10-(4-carboxy-1-methyl-2-oxo-3-azabutyl)-1,4,7,10-tetraazacyclododecane-1,4,7-triacetic acid with dendritic octaamine 4d [Example 4e]”: the “Plasma levels (as % of the dose)” value in data set [2] (1 min p.i.) turned out to be 65.9%; in data set [2] (3 min p.i.), 44.2%; in data set [2] (5 min p.i.), 30.0%; in data set [2] (10 min p.i.), 17.5%; in data set [2] (15 min p.i.), 13.5%; in data set [2] (30 min p.i.) it was 8.3%. The “Plasma levels (as % of the dose)” value in data set [2] (60 min p.i.) turned out to be 4.5%; in data set [2] (90 min p.i.), 2.7%; in data set [2] (120 min p.i.), 1.6%; in data set [2] (240 min p.i.) it was 0.3%; in data set [2] (360 min p.i.) it was 0.0%; in data set [2] (1440 min p.i.), 0.0%. For the same compound, in data set [2] (setting [4]), the “Half-life α phase” value is 3.3 min. In addition, in data set [2] (setting [4]), the “Half-life β phase” value is on record as 42.0 min. The “Volume of distribution Vd ss” value in data set [2] (setting [4]) is 0.20 L/kg.
As for albumin-GdDTPA, the “accumulation in liver tissue” value in data set [3] (24 hours after intravenous injection) was ~30 % of the dose. For the same compound, in data set [3] (in 24 hours), the dose eliminated is 20 % of the dose.
`CC(C(=O)NCC(=O)NCCCC[C@H](NC(=O)CNC(=O)C(C)N1CCN(CC(=O)O)CCN(CC(=O)O)CCN(CC(=O)O)CC1)C(=O)NCCCC[C@H](NC(=O)[C@H](CCCCNC(=O)CNC(=O)C(C)N1CCN(CC(=O)O)CCN(CC(=O)O)CCN(CC(=O)O)CC1)NC(=O)CNC(=O)C(C)N1CCN(CC(=O)O)CCN(CC(=O)O)CCN(CC(=O)O)CC1)C(=O)NCCN(CCNC(=O)[C@H](CCCCNC(=O)[C@H](CCCCNC(=O)CNC(=O)C(C)N1CCN(CC(=O)O)CCN(CC(=O)O)CCN(CC(=O)O)CC1)NC(=O)CNC(=O)C(C)N1CCN(CC(=O)O)CCN(CC(=O)O)CCN(CC(=O)O)CC1)NC(=O)[C@H](CCCCNC(=O)CNC(=O)C(C)N1CCN(CC(=O)O)CCN(CC(=O)O)CCN(CC(=O)O)CC1)NC(=O)CNC(=O)C(C)N1CCN(CC(=O)O)CCN(CC(=O)O)CCN(CC(=O)O)CC1)C(=O)c1cc(C(=O)N(CCNC(=O)[C@H](CCCCNC(=O)[C@H](CCCCNC(=O)CNC(=O)C(C)N2CCN(CC(=O)O)CCN(CC(=O)O)CCN(CC(=O)O)CC2)NC(=O)CNC(=O)C(C)N2CCN(CC(=O)O)CCN(CC(=O)O)CCN(CC(=O)O)CC2)NC(=O)[C@H](CCCCNC(=O)CNC(=O)C(C)N2CCN(CC(=O)O)CCN(CC(=O)O)CCN(CC(=O)O)CC2)NC(=O)CNC(=O)C(C)N2CCN(CC(=O)O)CCN(CC(=O)O)CCN(CC(=O)O)CC2)CCNC(=O)[C@H](CCCCNC(=O)[C@H](CCCCNC(=O)CNC(=O)C(C)N2CCN(CC(=O)O)CCN(CC(=O)O)CCN(CC(=O)O)CC2)NC(=O)CNC(=O)C(C)N2CCN(CC(=O)O)CCN(CC(=O)O)CCN(CC(=O)O)CC2)NC(=O)[C@H](CCCCNC(=O)CNC(=O)C(C)N2CCN(CC(=O)O)CCN(CC(=O)O)CCN(CC(=O)O)CC2)NC(=O)CNC(=O)C(C)N2CCN(CC(=O)O)CCN(CC(=O)O)CCN(CC(=O)O)CC2)cc(C(=O)N(CCNC(=O)[C@H](CCCCNC(=O)[C@H](CCCCNC(=O)CNC(=O)C(C)N2CCN(CC(=O)O)CCN(CC(=O)O)CCN(CC(=O)O)CC2)NC(=O)CNC(=O)C(C)N2CCN(CC(=O)O)CCN(CC(=O)O)CCN(CC(=O)O)CC2)NC(=O)[C@H](CCCCNC(=O)CNC(=O)C(C)N2CCN(CC(=O)O)CCN(CC(=O)O)CCN(CC(=O)O)CC2)NC(=O)CNC(=O)C(C)N2CCN(CC(=O)O)CCN(CC(=O)O)CCN(CC(=O)O)CC2)CCNC(=O)[C@H](CCCCNC(=O)[C@H](CCCCNC(=O)CNC(=O)C(C)N2CCN(CC(=O)O)CCN(CC(=O)O)CCN(CC(=O)O)CC2)NC(=O)CNC(=O)C(C)N2CCN(CC(=O)O)CCN(CC(=O)O)CCN(CC(=O)O)CC2)NC(=O)[C@H](CCCCNC(=O)CNC(=O)C(C)N2CCN(CC(=O)O)CCN(CC(=O)O)CCN(CC(=O)O)CC2)NC(=O)CNC(=O)C(C)N2CCN(CC(=O)O)CCN(CC(=O)O)CCN(CC(=O)O)CC2)c1)N1CCN(CC(=O)O)CCN(CC(=O)O)CCN(CC(=O)O)CC1` (stereo partly drawn) [Example No. 1 from EP 0 836 485]: the “Plasma levels (as % of the dose)” value in data set [2] (1 min p.i.) was determined as 75.0%; in data set [2] (3 min p.i.) it was 39.2%; in data set [2] (5 min p.i.), 25.0%; in data set [2] (10 min p.i.), 6.9%; in data set [2] (15 min p.i.), 4.0%; in data set [2] (30 min p.i.), 1.5%. For the same compound, the “Plasma levels (as % of the dose)” value is given as 1.0% in data set [2] (60 min p.i.); 0.9% in data set [2] (90 min p.i.); 0.7% in data set [2] (120 min p.i.); 0.4% in data set [2] (240 min p.i.); 0.4% in data set [2] (360 min p.i.); 0.0% in data set [2] (1440 min p.i.).
